Values quoted from earlier work in PMC11866742.

Target: SIRPα (Homo sapiens) (UniProt P78324)
Sequence of UniProt P78324 (P78324 31-373): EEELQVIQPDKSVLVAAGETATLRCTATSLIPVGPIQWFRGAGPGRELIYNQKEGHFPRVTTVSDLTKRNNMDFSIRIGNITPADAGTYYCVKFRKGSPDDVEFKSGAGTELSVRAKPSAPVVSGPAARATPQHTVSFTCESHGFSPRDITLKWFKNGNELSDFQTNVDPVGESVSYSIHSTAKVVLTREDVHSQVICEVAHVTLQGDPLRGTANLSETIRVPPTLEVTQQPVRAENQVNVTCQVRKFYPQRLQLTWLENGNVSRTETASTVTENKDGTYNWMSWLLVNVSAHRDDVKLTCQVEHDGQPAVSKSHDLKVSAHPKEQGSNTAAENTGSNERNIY

## CD47 (from UniProt Q08722)
  Kd: 1500 nM
